Assay results from US20200399381A1 (I MAB BIOPHARMA US, published 2020).

B1: 485G10 humanized VH3 + VL2 (antibody, V domains shown)
VH: QVQLVQSGAEVKKPGASVKLSCKGSGFNIKDYYIHWVKQAPGQGLEWIGRIDPEDAETKYAPKFQGRATITADTSISTAYLELSRLRSDDTVVYYCGRYHGYWALDYWGQGTLVTVSS
VL: DIQMTQSPSSLSTSVGDRVTITCKTSQNVGTNVAWYQQKPGKAPKPLIYSTSYRYSGVPSRFSGSGSGTDFTLTISSLQPEDFATYYCHQYFSYPYTFGPGTKVDIK
notes: Humanized IgG expressed in HEK293; also called VH3 + VL2 (485G10)
B2: 485G10 humanized VH3 + VL1 (antibody, V domains shown)
VH: QVQLVQSGAEVKKPGASVKLSCKGSGFNIKDYYIHWVKQAPGQGLEWIGRIDPEDAETKYAPKFQGRATITADTSISTAYLELSRLRSDDTVVYYCGRYHGYWALDYWGQGTLVTVSS
VL: DIQMTQSPSSLSASVGDRVTITCKTSQNVGTNVAWFQQKPGKAPKSLIYSTSYRYSGVPSRFSGSGSGTDFTLTISSLQPEDFATYYCHQYFSYPYTFGPGTKVDIK
notes: Humanized IgG expressed in HEK293; also called VH3 + VL1 (485G10)
B3: 485G10 humanized VH3 + VL4 (antibody, V domains shown)
VH: QVQLVQSGAEVKKPGASVKLSCKGSGFNIKDYYIHWVKQAPGQGLEWIGRIDPEDAETKYAPKFQGRATITADTSISTAYLELSRLRSDDTVVYYCGRYHGYWALDYWGQGTLVTVSS
VL: DIQMTQSPSSLSTSVGDRVTVTCKTSQNVGTNVAWYQQKPGKAPKPLIYSTSYRYSGVPSRFSGSGSGTDFTLTISSVQPEDFATYYCHQYFSYPYTFGPGTKLDIK
notes: Humanized IgG expressed in HEK293; also called VH3 + VL4 (485G10)
B4: 485G10 humanized VH3 + VL3 (antibody, V domains shown)
VH: QVQLVQSGAEVKKPGASVKLSCKGSGFNIKDYYIHWVKQAPGQGLEWIGRIDPEDAETKYAPKFQGRATITADTSISTAYLELSRLRSDDTVVYYCGRYHGYWALDYWGQGTLVTVSS
VL: DIQMTQSPSSLSTSVGDRVTITCKTSQNVGTNVAWYQQKPGKAPKPLIYSTSYRYSGVPSRFSGSGSGTDFTLTISSVQPEDFATYYCHQYFSYPYTFGPGTKLDIK
notes: Humanized IgG expressed in HEK293; also called VH3 + VL3 (485G10)
B5: 8G11 humanized VH3 + VL3 (antibody, V domains shown)
VH: QVQLVQSGAEVVKPGASVKVSCKGSGFNIKDYYMHWVKQAPGQGLEWIGRIDPEDAETKYAPKFQGRVTITADTSTSTVYLELSSLRSEDTAVYYCARGGNFYVMDYWGQGTLVTVSS
VL: DIQLTQSPSFLSTSVGDRVTITCKASQNVGTNVVWYQQKPGKSPKVLIYSASYRVSGVPSRFSGSGSGTEFTLIISSVQPEDFATYFCQQKNNYPYTFGQGTKLEIK
notes: Humanized IgG expressed in HEK293; also called VH3 + VL3 (8G11)
B6: 8G11 humanized VH3 + VL2 (antibody, V domains shown)
VH: QVQLVQSGAEVVKPGASVKVSCKGSGFNIKDYYMHWVKQAPGQGLEWIGRIDPEDAETKYAPKFQGRVTITADTSTSTVYLELSSLRSEDTAVYYCARGGNFYVMDYWGQGTLVTVSS
VL: DIQLTQSPSFLSTSVGDRVTITCKASQNVGTNVVWYQQKPGKSPKVLIYSASYRVSGVPSRFSGSGSGTEFTLIISSLQPEDFATYYCQQKNNYPYTFGQGTKLEIK
notes: Humanized IgG expressed in HEK293; also called VH3 + VL2 (8G11)
B7: 8G11 humanized VH4 + VL1 (antibody, V domains shown)
VH: QVQLVQSGAEVVKPGASVKLSCKGSGFNIKDYYMHWVKQAPGQGLEWIGRIDPEDAETKYAPKFQGRATITADTSTSTAYLELSSLRSEDTAVYYCARGGNFYVMDYWGQGTLVTVSS
VL: DIQLTQSPSFLSASVGDRVTITCKASQNVGTNVVWYQQKPGKAPKLLIYSASYRVSGVPSRFSGSGSGTEFTLTISSLQPEDFATYYCQQKNNYPYTFGQGTKLEIK
notes: Humanized IgG expressed in HEK293; also called VH4 + VL1 (8G11)
B8: 8G11 humanized VH1 + VL3 (antibody, V domains shown)
VH: QVQLVQSGAEVKKPGASVKVSCKASGFNIKDYYMHWVRQAPGQGLEWMGRIDPEDAETKYAPKFQGRVTMTRDTSTSTVYMELSSLRSEDTAVYYCARGGNFYVMDYWGQGTLVTVSS
VL: DIQLTQSPSFLSTSVGDRVTITCKASQNVGTNVVWYQQKPGKSPKVLIYSASYRVSGVPSRFSGSGSGTEFTLIISSVQPEDFATYFCQQKNNYPYTFGQGTKLEIK
notes: Humanized IgG expressed in HEK293; also called VH1 + VL3 (8G11)
B9: 8G11 humanized VH2 + VL4 (antibody, V domains shown)
VH: QVQLVQSGAEVVKPGASVKVSCKGSGFNIKDYYMHWVRQAPGQGLEWIGRIDPEDAETKYAPKFQGRVTMTADTSTSTVYMELSSLRSEDTAVYYCARGGNFYVMDYWGQGTLVTVSS
VL: DIQMTQSPSFLSTSVGDRVTVTCKASQNVGTNVVWYQQKPGKSPKVLIYSASYRVSGVPSRFSGSGSGTEFTLIISSVQPEDFATYFCQQKNNYPYTFGQGTKLEIK
notes: Humanized IgG expressed in HEK293; also called VH2 + VL4 (8G11)
B10: 8G11 humanized VH2 + VL3 (antibody, V domains shown)
VH: QVQLVQSGAEVVKPGASVKVSCKGSGFNIKDYYMHWVRQAPGQGLEWIGRIDPEDAETKYAPKFQGRVTMTADTSTSTVYMELSSLRSEDTAVYYCARGGNFYVMDYWGQGTLVTVSS
VL: DIQLTQSPSFLSTSVGDRVTITCKASQNVGTNVVWYQQKPGKSPKVLIYSASYRVSGVPSRFSGSGSGTEFTLIISSVQPEDFATYFCQQKNNYPYTFGQGTKLEIK
notes: Humanized IgG expressed in HEK293; also called VH2 + VL3 (8G11)
B11: 8G11 humanized VH1 + VL2 (antibody, V domains shown)
VH: QVQLVQSGAEVKKPGASVKVSCKASGFNIKDYYMHWVRQAPGQGLEWMGRIDPEDAETKYAPKFQGRVTMTRDTSTSTVYMELSSLRSEDTAVYYCARGGNFYVMDYWGQGTLVTVSS
VL: DIQLTQSPSFLSTSVGDRVTITCKASQNVGTNVVWYQQKPGKSPKVLIYSASYRVSGVPSRFSGSGSGTEFTLIISSLQPEDFATYYCQQKNNYPYTFGQGTKLEIK
notes: Humanized IgG expressed in HEK293; also called VH1 + VL2 (8G11)
B12: 8G11 humanized VH3 + VL1 (antibody, V domains shown)
VH: QVQLVQSGAEVVKPGASVKVSCKGSGFNIKDYYMHWVKQAPGQGLEWIGRIDPEDAETKYAPKFQGRVTITADTSTSTVYLELSSLRSEDTAVYYCARGGNFYVMDYWGQGTLVTVSS
VL: DIQLTQSPSFLSASVGDRVTITCKASQNVGTNVVWYQQKPGKAPKLLIYSASYRVSGVPSRFSGSGSGTEFTLTISSLQPEDFATYYCQQKNNYPYTFGQGTKLEIK
notes: Humanized IgG expressed in HEK293; also called VH3 + VL1 (8G11)
B13: 8G11 humanized VH3 + VL4 (antibody, V domains shown)
VH: QVQLVQSGAEVVKPGASVKVSCKGSGFNIKDYYMHWVKQAPGQGLEWIGRIDPEDAETKYAPKFQGRVTITADTSTSTVYLELSSLRSEDTAVYYCARGGNFYVMDYWGQGTLVTVSS
VL: DIQMTQSPSFLSTSVGDRVTVTCKASQNVGTNVVWYQQKPGKSPKVLIYSASYRVSGVPSRFSGSGSGTEFTLIISSVQPEDFATYFCQQKNNYPYTFGQGTKLEIK
notes: Humanized IgG expressed in HEK293; also called VH3 + VL4 (8G11)
B14: 8G11 humanized VH1 + VL4 (antibody, V domains shown)
VH: QVQLVQSGAEVKKPGASVKVSCKASGFNIKDYYMHWVRQAPGQGLEWMGRIDPEDAETKYAPKFQGRVTMTRDTSTSTVYMELSSLRSEDTAVYYCARGGNFYVMDYWGQGTLVTVSS
VL: DIQMTQSPSFLSTSVGDRVTVTCKASQNVGTNVVWYQQKPGKSPKVLIYSASYRVSGVPSRFSGSGSGTEFTLIISSVQPEDFATYFCQQKNNYPYTFGQGTKLEIK
notes: Humanized IgG expressed in HEK293; also called VH1 + VL4 (8G11)

Each binder was assayed against T1, human IFNAR-1 protein (form not stated) (human, UniProt P17181 28-436, limits assumed) (assay: affinity ranking of expressed humanized 485G10 IgGs (method not named)).
T1 construct: bispecific ELISA
T1 sequence (looked up): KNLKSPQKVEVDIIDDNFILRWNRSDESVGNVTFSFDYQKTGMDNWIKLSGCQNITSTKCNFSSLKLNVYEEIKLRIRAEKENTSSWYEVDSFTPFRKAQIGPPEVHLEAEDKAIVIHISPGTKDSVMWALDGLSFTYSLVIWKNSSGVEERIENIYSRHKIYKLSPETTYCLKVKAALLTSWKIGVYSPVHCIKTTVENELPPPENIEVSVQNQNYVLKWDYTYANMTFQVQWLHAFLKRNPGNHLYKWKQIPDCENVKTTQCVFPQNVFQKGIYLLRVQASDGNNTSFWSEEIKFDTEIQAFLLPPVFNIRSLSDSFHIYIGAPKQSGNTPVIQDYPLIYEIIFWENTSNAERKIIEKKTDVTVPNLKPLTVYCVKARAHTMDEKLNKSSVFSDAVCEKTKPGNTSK

Q: For B1, which Kd is on record?
A: The Kd was 864 pM.

Q: What about the koff of the same binder?
A: Its koff is 0.000264 s⁻¹.

Q: And the kon?
A: The kon was 306000 M⁻¹ s⁻¹.

Q: With B2 as the binder, how does the Kd read?
A: The Kd was 19100 pM.

Q: And the koff?
A: The koff was 0.0185 s⁻¹.

Q: And the kon?
A: Its kon is 971000 M⁻¹ s⁻¹.

Q: Which Kd does the source give for B3 here?
A: Its Kd is 766 pM.

Q: And the koff?
A: Its koff is 0.000271 s⁻¹.

Q: What about the kon of the same binder?
A: Its kon is 354000 M⁻¹ s⁻¹.

Q: Which Kd does the source give for B4 here?
A: The Kd was 841 pM.

Q: And the koff?
A: Its koff is 0.000279 s⁻¹.

Q: What about the kon of the same binder?
A: Its kon is 332000 M⁻¹ s⁻¹.

Each binder was assayed against T1, human IFNAR-1 protein (form not stated) (assay: affinity ranking of expressed humanized 8G11 IgGs (method not named)).

Q: Which Kd does the source give for B5 here?
A: The Kd was 364 pM.

Q: What about the koff of the same binder?
A: The koff was 0.00011 s⁻¹.

Q: What about the kon of the same binder?
A: Its kon is 301000 M⁻¹ s⁻¹.

Q: With B6 as the binder, how does the Kd read?
A: Its Kd is 389 pM.

Q: What about the koff of the same binder?
A: Its koff is 0.000111 s⁻¹.

Q: What about the kon of the same binder?
A: The kon was 284000 M⁻¹ s⁻¹.

Q: Which results are given for B7?
A: Kd: 489 pM; koff: 9.94e-05 s⁻¹; kon: 203000 M⁻¹ s⁻¹

Q: How did the Kd turn out when B8 was run?
A: Its Kd is 865 pM.

Q: What about the koff of the same binder?
A: Its koff is 0.0002 s⁻¹.

Q: And the kon?
A: Its kon is 231000 M⁻¹ s⁻¹.

Q: How did the Kd turn out when B9 was run?
A: The Kd was 388 pM.

Q: What about the koff of the same binder?
A: The koff was 0.000102 s⁻¹.

Q: And the kon?
A: Its kon is 262000 M⁻¹ s⁻¹.

Q: How did the Kd turn out when B10 was run?
A: Its Kd is 364 pM.

Q: And the koff?
A: The koff was 9.65e-05 s⁻¹.

Q: What about the kon of the same binder?
A: Its kon is 265000 M⁻¹ s⁻¹.

Q: What does the source list for B11?
A: Kd: 765 pM; koff: 0.000127 s⁻¹; kon: 167000 M⁻¹ s⁻¹

Q: For B12, which Kd is on record?
A: Its Kd is 413 pM.

Q: What about the koff of the same binder?
A: Its koff is 0.000106 s⁻¹.

Q: And the kon?
A: The kon was 256000 M⁻¹ s⁻¹.

Q: Which Kd does the source give for B13 here?
A: Its Kd is 401 pM.

Q: And the koff?
A: Its koff is 0.000113 s⁻¹.

Q: And the kon?
A: The kon was 281000 M⁻¹ s⁻¹.

Q: What does the source list for B14?
A: Kd: 836 pM; koff: 0.000141 s⁻¹; kon: 169000 M⁻¹ s⁻¹
